Measurements from publication PMC11272584 (Nature Metabolism, 2024).
Positions count from the first letter of the chain named.

Tests used:
GIPR S382T (human) = biological target: T1, GIPR S382T (human) (UniProt P48546)
T1 sequence: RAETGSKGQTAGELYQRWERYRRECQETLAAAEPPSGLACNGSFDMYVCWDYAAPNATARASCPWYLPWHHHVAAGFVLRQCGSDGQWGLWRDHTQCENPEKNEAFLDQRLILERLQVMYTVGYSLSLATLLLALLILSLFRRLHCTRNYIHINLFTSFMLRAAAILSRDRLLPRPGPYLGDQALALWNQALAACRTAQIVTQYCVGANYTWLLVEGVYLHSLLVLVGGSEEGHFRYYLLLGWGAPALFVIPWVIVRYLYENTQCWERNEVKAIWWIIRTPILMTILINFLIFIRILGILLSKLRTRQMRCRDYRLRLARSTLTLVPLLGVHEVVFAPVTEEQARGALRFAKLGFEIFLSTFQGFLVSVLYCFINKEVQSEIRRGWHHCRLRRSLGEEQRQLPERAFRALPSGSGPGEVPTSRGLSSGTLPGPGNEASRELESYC

GIPR Y73H (human) = biological target: T2, GIPR Y73H (human) (UniProt P48546)
T2 sequence: T1 sequence with Y52H, T361S

GIPR R164Q (human) = biological target: T3, GIPR R164Q (human) (UniProt P48546)
T3 sequence: T1 sequence with R143Q, T361S

GIPR V99I (human) = biological target: T4, GIPR V99I (human) (UniProt P48546)
T4 sequence: T1 sequence with V78I, T361S

GIPR A150T (human) = biological target: T5, GIPR A150T (human) (UniProt P48546)
T5 sequence: T1 sequence with A129T, T361S

GIPR A185V (human) = biological target: T6, GIPR A185V (human) (UniProt P48546)
T6 sequence: T1 sequence with A164V, T361S

- β-arrestin 2 recruitment (BRET) on stimulation with GIP(1-42): logEC50 (Arrestin) (log M (inferred)) (GIPR S382T (human)): -9.39
- β-arrestin 2 recruitment (BRET) on stimulation with GIP(1-42): logEC50 (Arrestin) (log M (inferred)) (GIPR Y73H (human)): -9.11
- β-arrestin 2 recruitment (BRET) on stimulation with GIP(1-42): logEC50 (Arrestin) (log M (inferred)) (GIPR R164Q (human)): -8.92
- β-arrestin 2 recruitment (BRET) on stimulation with GIP(1-42): logEC50 (Arrestin) (log M (inferred)) (GIPR V99I (human)): -8.93
- β-arrestin 2 recruitment (BRET) on stimulation with GIP(1-42): logEC50 (Arrestin) (log M (inferred)) (GIPR A150T (human)): -8.92
- β-arrestin 2 recruitment (BRET) on stimulation with GIP(1-42): logEC50 (Arrestin) (log M (inferred)) (GIPR A185V (human)): -8.96
Substance: β-arrestin 2 (Rluc8-Arrestin-3-Sp1) (from UniProt P32121 1-409) (natural protein)
